Data: patent US20100260668A1 (published 2010)

B1: DVD513 (bispecific antibody, human IgG1, kappa)
heavy: not shown
light: QAVVTQESALTTSPGETVTLTCRSSTGAVTTSNYANWVQEKPDHLFTGLIGGTNNRAPGVPARFSGSLIGDKAALTITGAQTEDEAIYFCALWYSNHWVFGGGTKLTVLGQPKAAPDIQMTQSPSSLSASVGDRVTITCRASQDVSTAVAWYQQKPGKAPKLLIYSASFLYSGVPSRFSGSGSGTDFTLTISSLQPEDFATYYCQQSYTTPPTFGQGTKVEIKRTVAAPSVFIFPPSDEQLKSGTASVVCLLNNFYPREAKVQWKVDNALQSGNSQESVTEQDSKDSTYSLSSTLTLSKADYEKHKVYACEVTHQGLSSPVTKSFNRGEC
notes: DVD-Ig; N-term; VD AB073 (DLL4), C-term; VD AB070 (VEGF); HC linker short, LC linker short; also called DVD513H; DVD513L
B2: DVD525 (bispecific antibody, human IgG1, kappa)
heavy: not shown
light: B1 light
notes: DVD-Ig; N-term; VD AB073 (DLL4), C-term; VD AB070 (VEGF); HC linker long, LC linker short; also called DVD525H; DVD525L
B3: DVD449 (bispecific antibody, human IgG1, kappa)
heavy: not shown
light: DIVMTQSPDSLAVSLGERATISCRASESVDNYGISFMKWFQQKPGQPPKLLIYAASNQGSGVPDRFSGSGSGTDFTLTISSLQAEDVAVYYCQQSKEVPWTFGGGTKVEIKRTVAAPSVFIFPPDIQMTQSPSSLSASVGDRVTITCRASQDVSTAVAWYQQKPGKAPKLLIYSASFLYSGVPSRFSGSGSGTDFTLTISSLQPEDFATYYCQQSYTTPPTFGQGTKVEIKRTVAAPSVFIFPPSDEQLKSGTASVVCLLNNFYPREAKVQWKVDNALQSGNSQESVTEQDSKDSTYSLSSTLTLSKADYEKHKVYACEVTHQGLSSPVTKSFNRGEC
notes: DVD-Ig; N-term; VD AB069 (DLL4), C-term; VD AB070 (VEGF); HC linker long, LC linker long; also called DVD449H; DVD449L
B4: DVD461 (bispecific antibody, human IgG1, kappa)
heavy: not shown
light: B3 light
notes: DVD-Ig; N-term; VD AB069 (DLL4), C-term; VD AB070 (VEGF); HC linker short, LC linker long; also called DVD461H; DVD461L
B5: DVD519 (bispecific antibody, human IgG1, kappa, lambda)
heavy: not shown
light: QAVVTQESALTTSPGETVTLTCRSSTGAVTTSNYANWVQEKPDHLFTGLIGGTNNRAPGVPARFSGSLIGDKAALTITGAQTEDEAIYFCALWYSNHWVFGGGTKLTVLGQPKAAPSVTLFPPDIQMTQSPSSLSASVGDRVTITCRASQDVSTAVAWYQQKPGKAPKLLIYSASFLYSGVPSRFSGSGSGTDFTLTISSLQPEDFATYYCQQSYTTPPTFGQGTKVEIKRTVAAPSVFIFPPSDEQLKSGTASVVCLLNNFYPREAKVQWKVDNALQSGNSQESVTEQDSKDSTYSLSSTLTLSKADYEKHKVYACEVTHQGLSSPVTKSFNRGEC
notes: DVD-Ig; N-term; VD AB073 (DLL4), C-term; VD AB070 (VEGF); HC linker long, LC linker long; also called DVD519H; DVD519L
B6: DVD455 (bispecific antibody, human IgG1, kappa)
heavy: not shown
light: DIVMTQSPDSLAVSLGERATISCRASESVDNYGISFMKWFQQKPGQPPKLLIYAASNQGSGVPDRFSGSGSGTDFTLTISSLQAEDVAVYYCQQSKEVPWTFGGGTKVEIKRTVAAPDIQMTQSPSSLSASVGDRVTITCRASQDVSTAVAWYQQKPGKAPKLLIYSASFLYSGVPSRFSGSGSGTDFTLTISSLQPEDFATYYCQQSYTTPPTFGQGTKVEIKRTVAAPSVFIFPPSDEQLKSGTASVVCLLNNFYPREAKVQWKVDNALQSGNSQESVTEQDSKDSTYSLSSTLTLSKADYEKHKVYACEVTHQGLSSPVTKSFNRGEC
notes: DVD-Ig; N-term; VD AB069 (DLL4), C-term; VD AB070 (VEGF); HC linker long, LC linker short; also called DVD455H; DVD455L

Molecular target: T1, VEGF (UniProt P15692-4 27-191)
T1 construct: Bought reagent; also called vascular endothelial growth factor
Experiment: SPR (Biacore), DVD-Ig captured, VEGF in solution

T1 sequence (P15692 other isoform, or with tags, fused parts or gaps limits assumed): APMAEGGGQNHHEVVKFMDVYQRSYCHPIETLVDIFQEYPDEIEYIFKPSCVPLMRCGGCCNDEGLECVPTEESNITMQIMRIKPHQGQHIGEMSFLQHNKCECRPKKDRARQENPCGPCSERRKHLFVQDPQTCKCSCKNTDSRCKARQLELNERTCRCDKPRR

Kd | koff | kon | Binder
1.24 nM | 0.000497 s⁻¹ | 400000 M⁻¹ s⁻¹ | B1
0.447 nM | 0.000483 s⁻¹ | 1.08e+06 M⁻¹ s⁻¹ | B2
0.903 nM | 0.000208 s⁻¹ | 230000 M⁻¹ s⁻¹ | B3
0.75 nM | 0.000202 s⁻¹ | 269000 M⁻¹ s⁻¹ | B4
0.223 nM | 0.00522 s⁻¹ | 2.35e+07 M⁻¹ s⁻¹ | B5
0.46 nM | 8.15e-05 s⁻¹ | 177000 M⁻¹ s⁻¹ | B6
